According to patent publication US20110143963A1 (UNIVERSITY OF CHICAGO, published 2011):
Where no end group is shown, it is not given here.

How the values were obtained:
[1] = biological target: T1, ARVCF peptide PQPVDSWV-COOH (eight-residue motif corresponding to the ARVCF C-terminus) (not fully specified; printed as PQPVDSWV-COOH); assay: SPR (BIAcore)
T1 construct: also called ARVCF target peptide; AVFCF peptide
T1 peptide: PQPVDSWV-OH

[2] = biological target: T1, ARVCF peptide PQPVDSWV-COOH …; assay: SPR (error 13500 stands in r16c7)
[3] = biological target: T1, ARVCF peptide PQPVDSWV-COOH …; assay: SPR, ratio of Kd
[4] = biological target: T2, SUMO-ARVCF fusion protein (yeast); assay: SPR, equilibrium mode, target peptide fused to yeast SUMO
T2 construct: also called target peptide fused to the yeast SUMO protein; the target

[5] = biological target: T2, SUMO-ARVCF fusion protein; assay: SPR, ratio of Kd
[6] = biological target: T3, target motif GGRSWFETWV-COOH; assay: phage display format and SPR
T3 construct: also called target peptide
T3 peptide: GGRSWFETWV-OH
Method: From visual inspection of the erbin PDZ structure and a sequence alignment of PDZ domains, three potential sites were identified for the new termini in a circularly permutated PDZ domain. Three mutant PDZ domains, in which four Gly residues were inserted in one of the three candidate sites, were assayed for binding to the target motif using the phage display format.

B1: fusion protein of cpPDZ and FN3 (starting material) (designed binder)
chain: PELGFSISGGVGGRGNPFRPDDDGIFVTRVQPEGPASKLLQPGDKIIQANGYSFINIEHGQAVSLLKTFQNTVELIIVREVGNGAKQEIRVRVEKDGGSGGVSSVPTNLEVVAATPTSLLISWDASSSSVSYYRITYGETGGNSPVQEFTVPGSKSTATISGLKPGVDYTITVYASSSSSSSSSSPISINYRT
Kd [1]: 25 µM | Kd [2]: 24.8 µM | Affinity Enhancement (Kd of cpPDZFN for ARVCF / Kd of the clamp) [3]: 1 fold

B2: peptide-PDZ affinity clamp, clone 282-6 (designed binder)
chain: GSNFCASNGTGNDCRRPELGFSISGGVGGRGNPFRPDDDGIFVTRVQPEGPASKLLQPGDKIIQANGYSFINIEHGQAVSLLKTFQNTVELIIVREVGNGAKQEIRVRVEKDGG
modifications: disulfide-constrained (Cys-constrained) peptide segment
Kd [4]: 0.91 µM | fold higher affinity than the parent interaction domain (cpPDZ) [5]: 12 fold

B3: circularly permutated PDZ domain (designed binder)
chain: PELGFSISGGVGGRGNPFRPDDDGIFVTRVQPEGPASKLLQPGDKIIQANGYSFINIEHGQAVSLLKTFQNTVELIIVREVGNGAKQEIRVRVEKD
notes: The order would be PDZ residues 21 to C-terminus, Asn-Gly, then residues 1-20; also called cpPDZ
binding result [6]: binds
